Laboratory results as given in patent US20100291103A1 (DOMANTIS, published 2010).

T1: TNFR1 on MRC-5 cells (UniProt P19438 30-455, limits assumed)
T1 sequence (looked up): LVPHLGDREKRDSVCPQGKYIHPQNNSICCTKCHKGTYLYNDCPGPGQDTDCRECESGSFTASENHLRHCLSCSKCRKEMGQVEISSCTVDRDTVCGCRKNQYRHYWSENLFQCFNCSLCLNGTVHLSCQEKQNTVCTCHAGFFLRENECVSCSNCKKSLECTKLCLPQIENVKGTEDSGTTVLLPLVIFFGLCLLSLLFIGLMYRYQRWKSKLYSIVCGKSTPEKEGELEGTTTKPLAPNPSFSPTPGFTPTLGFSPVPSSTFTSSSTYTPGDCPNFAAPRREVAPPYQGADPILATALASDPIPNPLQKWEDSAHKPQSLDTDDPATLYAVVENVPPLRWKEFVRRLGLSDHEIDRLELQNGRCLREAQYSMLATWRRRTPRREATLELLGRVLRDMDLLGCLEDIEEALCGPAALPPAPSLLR

T2: TNFR1-FC fusion (human TNFR1 receptor binding assay) (human, UniProt P19438 22-211, limits assumed)
T2 construct: also called TNFR1 (RBA); not shown: Fc part, captured by goat anti-human IgG (H&L); not described further
T2 sequence (looked up): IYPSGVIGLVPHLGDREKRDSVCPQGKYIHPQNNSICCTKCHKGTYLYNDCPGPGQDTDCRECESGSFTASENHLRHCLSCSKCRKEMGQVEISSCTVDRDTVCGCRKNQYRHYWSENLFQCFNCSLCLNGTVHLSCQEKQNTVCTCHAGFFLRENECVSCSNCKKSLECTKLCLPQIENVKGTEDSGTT


Columns and labels:
TNFR1 on MRC-5 cells = target: T1, TNFR1 on MRC-5 cells; test: cell-based or functional assay
[1] = target: T2, TNFR1-FC fusion (human TNFR1 receptor …); test: RBA assay; taken as the value of the Fc fusion

ND50, MRC-5 cell-based assay (TNFα stimulated IL-8 release) (TNFR1 on MRC-5 cells) [nM]	Activity (nM), RBA [1] [nM]	Binder
0.71		DOM1h-131-206 (other) VH: EVQLLESGGGLVQPGGSLRLSCAASGFTFAHETMVWVRQAPGKGLEWVSHIPPDGQDPFYADSVKGRFTISRDNSKNTLYLQMNSLRAEDTAVYHCALLPKRGPWFDYWGQGTLVTVSS
	0.047	DMS1544 (DOM1h-131-206 Fc fusion) (Fc fusion, not shown: a dimerising Fc or GST, Dimeric Fc fusion) EVQLLESGGGLVQPGGSLRLSCAASGFTFAHETMVWVRQAPGKGLEWVSHIPPDGQDPFYADSVKGRFTISRDNSKNTLYLQMNSLRAEDTAVYHCALLPKRGPWFDYWGQGTLVTVSSASTHTCPPCPAPELLGGP
